Assay results taken from patent US20260209321A1 (SINGAPORE HEALTH SERVICES PTE, published 2026).

Assays:
[1] = target: T1, Peptide-biotin; assay: SPR Biacore 8K affinity ranking; antibody Fc-captured, Peptide-biotin analyte, 1:1 fit
T1 construct: also called antigen
Protocol: For affinity ranking, antibodies were captured on the sensor chip through Fc capture method. Peptide-biotin was used as the analyte. The surface was regenerated before the injection of another antibody. The process was repeated until all antibodies are analyzed. The off-rates of antibodies were obtained from fitting the experimental data locally to 1:1 interaction model using the Biacore 8K evaluation software. The antibodies were ranked by their dissociation rate constants (off-rates, kd). Based on the ranking result, the top 3 clones were selected.
Humanized antibodies were generated by replacing the framework regions (FRs) from mouse M4M antibody with counterparts from human, while maintaining the antibody's complementarity-determining regions (CDRs) binding regions. The antibody binding affinity of the chimeric and humanized antibodies was assessed by surface plasmon resonance (SPR) as shown in Table 1. Antibody clone A1 is the chimeric antibody and antibody clones A2-7 are humanized antibodies. Based on the results obtained from SPR, humanized clone A2 has the strongest SPR signal. For affinity ranking, antibodies were captured on the sensor chip through Fc capture method. Peptide-biotin was used as the analyte. The surface was regenerated before the injection of another antibody. The process was repeated until all antibodies are analyzed. The off-rates of antibodies were obtained from fitting the experimental data locally to 1:1 interaction model using the Biacore 8K evaluation software. The antibodies were ranked by their dissociation rate constants (off-rates, kd). Based on the ranking result, the top humanized clones were selected. […] Bolded and underlined amino acids correspond to the back mutation sites in the framework regions.

[2] = target: T2, human TRPM4 expressed in transfected HEK 293 cells (human, UniProt Q8TD43 1-1214); assay: immunofluorescent staining of HEK 293 cells transfected with human TRPM4; colocalization with WGA (surface TRPM4)
T2 construct: whole, on cells; also called transient receptor potential melastatin 4
T2 sequence (Q8TD43 whole entry): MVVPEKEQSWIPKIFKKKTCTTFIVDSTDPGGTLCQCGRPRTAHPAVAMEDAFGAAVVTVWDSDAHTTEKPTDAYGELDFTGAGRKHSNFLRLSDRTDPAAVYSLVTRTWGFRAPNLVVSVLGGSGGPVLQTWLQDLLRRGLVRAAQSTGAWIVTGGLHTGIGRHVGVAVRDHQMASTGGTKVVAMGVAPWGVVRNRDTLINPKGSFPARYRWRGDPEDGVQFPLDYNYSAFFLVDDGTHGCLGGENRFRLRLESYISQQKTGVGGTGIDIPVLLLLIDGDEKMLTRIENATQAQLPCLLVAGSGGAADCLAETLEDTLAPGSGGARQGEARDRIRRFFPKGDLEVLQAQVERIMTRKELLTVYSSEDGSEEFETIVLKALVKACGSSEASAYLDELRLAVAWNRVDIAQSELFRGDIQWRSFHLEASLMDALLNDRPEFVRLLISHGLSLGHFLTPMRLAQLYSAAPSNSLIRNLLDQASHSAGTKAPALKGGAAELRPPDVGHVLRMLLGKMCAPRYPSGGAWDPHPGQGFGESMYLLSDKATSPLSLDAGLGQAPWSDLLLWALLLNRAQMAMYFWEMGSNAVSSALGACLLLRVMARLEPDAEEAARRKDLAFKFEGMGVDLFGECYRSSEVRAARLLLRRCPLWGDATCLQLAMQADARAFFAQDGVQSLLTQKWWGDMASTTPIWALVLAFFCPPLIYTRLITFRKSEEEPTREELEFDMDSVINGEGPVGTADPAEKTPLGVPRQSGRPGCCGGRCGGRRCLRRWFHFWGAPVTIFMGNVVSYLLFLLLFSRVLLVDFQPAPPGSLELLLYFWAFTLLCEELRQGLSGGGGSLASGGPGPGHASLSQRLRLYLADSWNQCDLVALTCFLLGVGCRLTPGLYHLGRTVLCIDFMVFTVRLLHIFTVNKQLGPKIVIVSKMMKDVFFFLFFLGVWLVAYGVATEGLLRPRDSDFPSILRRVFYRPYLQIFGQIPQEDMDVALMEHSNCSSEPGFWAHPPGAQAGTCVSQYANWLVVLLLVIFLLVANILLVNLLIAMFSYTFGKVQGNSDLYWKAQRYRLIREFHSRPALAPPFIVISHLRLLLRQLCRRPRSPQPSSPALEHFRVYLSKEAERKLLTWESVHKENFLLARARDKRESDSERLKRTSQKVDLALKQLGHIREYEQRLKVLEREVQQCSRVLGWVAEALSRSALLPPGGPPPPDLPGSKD

[3] = target: T1, Peptide-biotin; assay: SPR Biacore 8K, purified IgG Fc-captured, Peptide-biotin analyte, 1:1 fit
Protocol: The affinity of purified antibody binding to Peptide-biotin was individually determined using a Surface Plasmon Resonance (SPR) biosensor, Biacore 8K (GE Healthcare). Antibodies were captured on the sensor chip through Fc capture method. Peptide-biotin was used as the analyte. The data of dissociation (kd) and association (ka) rate constants were obtained using Biacore 8K evaluation software. The equilibrium dissociation constants (KD) were calculated from the ratio of kd over ka.

Row | Binder | Kd [1] [nM] | koff [1] [s⁻¹] | kon [1] [M⁻¹ s⁻¹] | Kd [3] [nM] | koff [3] [s⁻¹] | kon [3] [M⁻¹ s⁻¹] | binding result [2]
1 | humanized anti-TRPM4 antibody VH4 + VL1 (antibody, V domains shown, Full-length IgG) VH: QVQLQESGPGLVKPSQTLSLTCTVSGYSITSDYAWNWIRQHPGKGLQWMGYLSYSGVTSYNPSLKGRITISRDTSKNQFFLKLSSVTAADTAVYYCARKGTYYRYEGSYWYFDVWGQGTTVTVSS VL: DIQMTQSPSSLSASVGDRVTITCHANQNIDVWLSWYQQKPGKAPKLLIYKTSNLHTGVPSRFSGSGSGTDFTFTISSLQPEDIATYYCQQGQSYPLTFGGGTKLEIKR | 4.47 | 0.00136 | 305000 |  |  |  | 
2 | humanized anti-TRPM4 antibody VH4 + VL2 (antibody, V domains shown, Full-length IgG) VH: QVQLQESGPGLVKPSQTLSLTCTVSGYSITSDYAWNWIRQHPGKGLQWMGYLSYSGVTSYNPSLKGRITISRDTSKNQFFLKLSSVTAADTAVYYCARKGTYYRYEGSYWYFDVWGQGTTVTVSS VL: DIQMTQSPSSLSASVGDRVTITCHANQNIDVWLSWYQQKPGKAPKLLIYKTSNLHTGVPSRFSGSGSGTDFTLTISSLQPEDIATYYCQQGQSYPLTFGGGTKLEIKR | 4.37 | 0.00132 | 303000 |  |  |  | 
3 | humanized anti-TRPM4 antibody VH3 + VL1 (antibody, V domains shown, Full-length IgG) VH: QVQLQESGPGLVKPSQTLSLTCTVSGYSITSDYAWNWIRQHPGKGLQWMGYLSYSGVTSYNPSLKGRITISRDTSKNQFSLKLSSVTAADTAVYYCARKGTYYRYEGSYWYFDVWGQGTTVTVSS VL: DIQMTQSPSSLSASVGDRVTITCHANQNIDVWLSWYQQKPGKAPKLLIYKTSNLHTGVPSRFSGSGSGTDFTFTISSLQPEDIATYYCQQGQSYPLTFGGGTKLEIKR | 4.36 | 0.00149 | 342000 |  |  |  | 
4 | humanized anti-TRPM4 antibody VH3 + VL3 (antibody, V domains shown, Full-length IgG) VH: QVQLQESGPGLVKPSQTLSLTCTVSGYSITSDYAWNWIRQHPGKGLQWMGYLSYSGVTSYNPSLKGRITISRDTSKNQFSLKLSSVTAADTAVYYCARKGTYYRYEGSYWYFDVWGQGTTVTVSS VL: DIQMTQSPSSLSASVGDRVTITCHANQNIDVWLSWYQQKPGNAPKLLIYKTSNLHTGVPSRFSGSGSGTDFTFTISSLQPEDIATYYCQQGQSYPLTFGGGTKLEIKR | 4.4 | 0.0018 | 409000 |  |  |  | 
5 | humanized anti-TRPM4 antibody VH2 + VL3 (antibody, V domains shown, Full-length IgG) VH: QVQLQESGPGLVKPSQTLSLTCTVSGYSITSDYAWNWIRQHPGKGLEWMGYLSYSGVTSYNPSLKGRVTISRDTSKNQFSLKLSSVTAADTAVYYCARKGTYYRYEGSYWYFDVWGQGTTVTVSS VL: DIQMTQSPSSLSASVGDRVTITCHANQNIDVWLSWYQQKPGNAPKLLIYKTSNLHTGVPSRFSGSGSGTDFTFTISSLQPEDIATYYCQQGQSYPLTFGGGTKLEIKR | 10.8 | 0.00219 | 203000 |  |  |  | 
6 | humanized anti-TRPM4 antibody VH2 + VL4 (antibody, V domains shown, Full-length IgG) VH: QVQLQESGPGLVKPSQTLSLTCTVSGYSITSDYAWNWIRQHPGKGLEWMGYLSYSGVTSYNPSLKGRVTISRDTSKNQFSLKLSSVTAADTAVYYCARKGTYYRYEGSYWYFDVWGQGTTVTVSS VL: DIQMTQSPSSLSASVGDRVTITCHANQNIDVWLSWYQQKPGNAPKLLIYKTSNLHTGVPSRFSGSGSGTDFTLTISSLQPEDIATYYCQQGQSYPLTFGGGTKLEIKR | 8.62 | 0.00185 | 215000 |  |  |  | 
7 | humanized anti-TRPM4 antibody clone A7 (VH2 + VL2) (antibody, V domains shown, Full-length IgG, IgG1 heavy chain; also called VH2 + VL2 (A7)) VH: QVQLQESGPGLVKPSQTLSLTCTVSGYSITSDYAWNWIRQHPGKGLEWMGYLSYSGVTSYNPSLKGRVTISRDTSKNQFSLKLSSVTAADTAVYYCARKGTYYRYEGSYWYFDVWGQGTTVTVSS VL: DIQMTQSPSSLSASVGDRVTITCHANQNIDVWLSWYQQKPGKAPKLLIYKTSNLHTGVPSRFSGSGSGTDFTLTISSLQPEDIATYYCQQGQSYPLTFGGGTKLEIKR | 11.5 | 0.00295 | 256000 |  |  |  | binds
8 | humanized anti-TRPM4 antibody clone A5 (VH1 + VL4) (antibody, V domains shown, Full-length IgG, IgG1 heavy chain; also called VH1 + VL4 (A5)) VH: QVQLQESGPGLVKPSQTLSLTCTVSGYSITSDYAWNWIRQHPGKGLEWIGYLSYSGVTSYNPSLKGRVTISVDTSKNQFSLKLSSVTAADTAVYYCARKGTYYRYEGSYWYFDVWGQGTTVTVSS VL: DIQMTQSPSSLSASVGDRVTITCHANQNIDVWLSWYQQKPGNAPKLLIYKTSNLHTGVPSRFSGSGSGTDFTLTISSLQPEDIATYYCQQGQSYPLTFGGGTKLEIKR | 9.96 | 0.00217 | 217000 |  |  |  | binds

Continued, in another order:

Row | Kd [1] [nM] | koff [1] [s⁻¹] | kon [1] [M⁻¹ s⁻¹] | Kd [3] [nM] | koff [3] [s⁻¹] | kon [3] [M⁻¹ s⁻¹] | Binder | binding result [2]
9 | 9.81 | 0.00321 | 327000 |  |  |  | humanized anti-TRPM4 antibody clone A3 (VH1 + VL2) (antibody, V domains shown, Full-length IgG, IgG1 heavy chain; also called VH1 + VL2 (A3)) VH: QVQLQESGPGLVKPSQTLSLTCTVSGYSITSDYAWNWIRQHPGKGLEWIGYLSYSGVTSYNPSLKGRVTISVDTSKNQFSLKLSSVTAADTAVYYCARKGTYYRYEGSYWYFDVWGQGTTVTVSS VL: DIQMTQSPSSLSASVGDRVTITCHANQNIDVWLSWYQQKPGKAPKLLIYKTSNLHTGVPSRFSGSGSGTDFTLTISSLQPEDIATYYCQQGQSYPLTFGGGTKLEIKR | binds
10 | 4.43 | 0.00201 | 454000 |  |  |  | humanized anti-TRPM4 antibody VH4 + VL4 (antibody, V domains shown, Full-length IgG) VH: QVQLQESGPGLVKPSQTLSLTCTVSGYSITSDYAWNWIRQHPGKGLQWMGYLSYSGVTSYNPSLKGRITISRDTSKNQFFLKLSSVTAADTAVYYCARKGTYYRYEGSYWYFDVWGQGTTVTVSS VL: DIQMTQSPSSLSASVGDRVTITCHANQNIDVWLSWYQQKPGNAPKLLIYKTSNLHTGVPSRFSGSGSGTDFTLTISSLQPEDIATYYCQQGQSYPLTFGGGTKLEIKR | 
11 | 2.22 | 0.00135 | 608000 |  |  |  | humanized anti-TRPM4 antibody VH3 + VL4 (antibody, V domains shown, Full-length IgG) VH: QVQLQESGPGLVKPSQTLSLTCTVSGYSITSDYAWNWIRQHPGKGLQWMGYLSYSGVTSYNPSLKGRITISRDTSKNQFSLKLSSVTAADTAVYYCARKGTYYRYEGSYWYFDVWGQGTTVTVSS VL: DIQMTQSPSSLSASVGDRVTITCHANQNIDVWLSWYQQKPGNAPKLLIYKTSNLHTGVPSRFSGSGSGTDFTLTISSLQPEDIATYYCQQGQSYPLTFGGGTKLEIKR | 
12 | 4.32 | 0.00143 | 332000 |  |  |  | humanized anti-TRPM4 antibody VH4 + VL3 (antibody, V domains shown, Full-length IgG) VH: QVQLQESGPGLVKPSQTLSLTCTVSGYSITSDYAWNWIRQHPGKGLQWMGYLSYSGVTSYNPSLKGRITISRDTSKNQFFLKLSSVTAADTAVYYCARKGTYYRYEGSYWYFDVWGQGTTVTVSS VL: DIQMTQSPSSLSASVGDRVTITCHANQNIDVWLSWYQQKPGNAPKLLIYKTSNLHTGVPSRFSGSGSGTDFTFTISSLQPEDIATYYCQQGQSYPLTFGGGTKLEIKR | 
13 | 4.53 | 0.00198 | 438000 |  |  |  | humanized anti-TRPM4 antibody VH3 + VL2 (antibody, V domains shown, Full-length IgG) VH: QVQLQESGPGLVKPSQTLSLTCTVSGYSITSDYAWNWIRQHPGKGLQWMGYLSYSGVTSYNPSLKGRITISRDTSKNQFSLKLSSVTAADTAVYYCARKGTYYRYEGSYWYFDVWGQGTTVTVSS VL: DIQMTQSPSSLSASVGDRVTITCHANQNIDVWLSWYQQKPGKAPKLLIYKTSNLHTGVPSRFSGSGSGTDFTLTISSLQPEDIATYYCQQGQSYPLTFGGGTKLEIKR | 
14 | 10.6 | 0.00195 | 184000 | 4.02 | 0.000662 | 165000 | humanized anti-TRPM4 antibody clone A6 (VH2 + VL1) (antibody, V domains shown, Full-length IgG, IgG1 heavy chain; also called VH2 + VL1 (A6)) VH: QVQLQESGPGLVKPSQTLSLTCTVSGYSITSDYAWNWIRQHPGKGLEWMGYLSYSGVTSYNPSLKGRVTISRDTSKNQFSLKLSSVTAADTAVYYCARKGTYYRYEGSYWYFDVWGQGTTVTVSS VL: DIQMTQSPSSLSASVGDRVTITCHANQNIDVWLSWYQQKPGKAPKLLIYKTSNLHTGVPSRFSGSGSGTDFTFTISSLQPEDIATYYCQQGQSYPLTFGGGTKLEIKR | binds
15 | 7 | 0.00177 | 252000 | 3.18 | 0.00062 | 195000 | humanized anti-TRPM4 antibody clone A4 (VH1 + VL3) (antibody, V domains shown, Full-length IgG, IgG1 heavy chain; also called VH1 + VL3 (A4)) VH: QVQLQESGPGLVKPSQTLSLTCTVSGYSITSDYAWNWIRQHPGKGLEWIGYLSYSGVTSYNPSLKGRVTISVDTSKNQFSLKLSSVTAADTAVYYCARKGTYYRYEGSYWYFDVWGQGTTVTVSS VL: DIQMTQSPSSLSASVGDRVTITCHANQNIDVWLSWYQQKPGNAPKLLIYKTSNLHTGVPSRFSGSGSGTDFTFTISSLQPEDIATYYCQQGQSYPLTFGGGTKLEIKR | binds
16 | 4.61 | 0.0015 | 325000 | 1.74 | 0.000543 | 312000 | anti-TRPM4 chimeric antibody clone A1 (VH + VL) (antibody, V domains shown, also called VH + VL (A1)) VH: QVQLQESGPGLVKPSQSLSLTCTVTGYSITSDYAWNWIRQFPGNKLQWMGYLSYSGVTSYNPSLKGRISITRDTSKNQFFLQLSSVTPEDTATYYCARKGTYYRYEGSYWYFDVWGAGTTVTVSS VL: DIQMNQSPSSLSASLGDTITITCHANQNIDVWLSWYQQKPGNVPKLLIYKTSNLHTGVPSRFSGSGSGTDFTLTISSLQPEDIATYYCQQGQSYPLTFGGGTKLEIK | binds
